{"source": "patent US11230704B2", "about": "“Oxidation of highly unsaturated fatty acids with novel 8-lipoxygenase derived from Malacostraca” (Bizen Chemical Co., Ltd., priority 2018, dated 2022)", "key": {"[1]": {"system": "peroxisome proliferator-activated receptor (PPAR)", "settings": "background statement, Non Patent Literature 1; cited from earlier work"}, "[2]": {"test": "Measurement of activity of PK LOX2: thawed PK LOX2 expressing Sf9 cell pellets incubated with EPA, LC-QTOFMS", "format": "biochemical, Sf9 cells", "protocol": "A baculovirus stock expressing PK LOX2 obtained by the same method as PK LOX1 in Example 3 was prepared. Sf9 cells were infected therewith. After washing the Sf9 cells after two days from infection with PBS and centrifuging the cells at 1500 g, the cells were frozen at −80° C. after removing the PBS. 50 μL of 200 mM Tris-HCl (pH of 7.4) supplemented with EPA at a concentration of 50 μM was added to PK LOX2 expressing Sf9 cell pellets thawed on ice, and the pellets were incubated for 4 hours at 27° C. After adding 150 μL of acetonitrile (containing 1% formic acid) to the incubated solution and vortexing the solution, the solution was centrifuged for 10 minutes at 4° C. at 20,000 g. The supernatant was collected and 5 μL thereof was subjected to LC-QTOFMS to analyze 8-HEPE."}, "[3]": {"test": "Measurement of activity of PK LOX1: arachidonic acid added to medium of PK LOX1 expressing Sf9 insect cells, LC-QTOFMS of cell extract", "format": "cell-based", "settings": "50 μM, 4 hours; FIG. 6C", "protocol": "(§1) A P1 baculovirus stock prepared by cryopreserving a culture supernatant of Sf9 insect cells transduced with bacmid expressing PK LOX1 was added to a medium of Sf9 insect cells and cultured for 1 week. 50 μM of arachidonic acid, eicosapentaenoic acid, or docosahexaenoic acid was added to the medium of baculovirus infected cells, and the cells were centrifuged and collected after 4 hours of culture. After removing the medium from the Sf9 cells and adding acetonitrile to the cells and sonicating the cells, the solution was centrifuged for 10 minutes at 20,000 g, and the supernatant was used as an extract. 5 μL of the extract was subjected to high performance liquid chromatography/mass spectrometry system (LC-QTOFMS: Agilent) to analyze 8-HETE, 8-HEPE, and 10-HDoHE. […] The 8-HETE content after adding an arachidonic acid, 8-HEPE content after adding an eicosapentaenoic acid, and 10-HDoHE content after adding a docosahexaenoic acid are higher in a PK LOX1 expressing Sf9 insect cell extract compared to an extract of EGFP expressing Sf9 insect cells used as a control. It was confirmed that 8-HETE, 8-HEPE, and 10-HDoHE production is induced by PK LOX1 expression (FIG. 6C)."}, "[4]": {"test": "Measurement of activity of PK LOX1: docosahexaenoic acid added to medium of PK LOX1 expressing Sf9 insect cells, LC-QTOFMS of cell extract", "format": "cell-based", "settings": "50 μM, 4 hours; FIG. 6C", "protocol": "as §1"}, "[5]": {"test": "Measurement of activity of PK LOX1: EPA added to medium of PK LOX1 expressing Sf9 insect cells, LC-QTOFMS of cell extract", "format": "cell-based", "protocol": "as §1"}}, "data": [{"molecule": "CCC=CCC=CCC=CC=CC(O)CC=CCCCC(=O)O", "note": "(centres unmarked) [8-HEPE, 8-hydroxyeicosapentaenoic acid]", "values": [{"measurement": "PPAR activating action compared with EPA", "setting": "[1]", "value": "higher peroxisome proliferator-activated receptor (PPAR) activating action than EPA"}]}, {"molecule": "PK LOX2: lipoxygenase isolated from Euphausia pacifica, 686 amino acids, SEQ ID NO: 4, expressed His-tagged in Sf9 insect cells (protein, listed as Euphausia pacifica, His tag) MVALRCFKPEEMHIFTICGLFLAAMEVSNAYLCNNNFLVTVKTGYGTDAGSNASVILVLEDQNRNEIRNWLSIPKQDETGNHRIPIPTSFGRIVTVELALDYKLAPDWYCEDIFIEDPRLNDRLYFPIDRRIQGNQFYDFQNYATCLPQFDQNSISRRLTLQKKREDYQLSYDRTAAMVKDLPQDEIFHQDYISSIRAIQKTSIDDQIPLLQAWQSSNNISAFFGGDFYMPQSIQFWKEDAWFGAQRVQGIVPNIIELCKQIPDKLGVTEDTISGLLEGSTLQQALKNNKIFISDLELLDGIQYSGVWSDNADHAAPISVFYLNKIDQLMPIAIQLRQQKGPKNPVYTPKDPPNTWLVAKIYYNNAESQFHQILVHFGYTHMIMDGIATSMNRQLSPSHPVFKILKPHFLYLLAINRLGEQELFVPQGVFPYFSIGLDGMNQLLAKAVPQFTLARAIGSVESDARARGVWDKQVLPYYPFRDDAHSMYNIIKKYATKVIYYYYNTPGKIINDMELQRWRTELAKPRAQGGVGIPDLPGSDTAGFRDINEIIDLVTTIITHSSVGHAAVNFPMYDTYGYFPNYPPDLNEGPPLQKMLYTEDEIMSLFPNGSHAFRVRATIRVLSWQGTNDCGDFEKIYLYDPVSQEAQVELRKDLAMFSKEVMNRNSKRFIPYKYLDPNYVPNAISI", "values": [{"measurement": "8-HEPE production", "setting": "[2]; EPA 50 μM, 4 hours at 27° C., FIG. 7", "value": "8-HEPE production was observed"}, {"measurement": "activity compared with specific activity of lipoxygenases known in the art", "setting": "[2]; PK LOX2 expressing Sf9 cells", "value": "markedly stronger than the specific activity of lipoxygenases known in the art"}, {"measurement": "specific activity of lipoxygenase (8-HEPE/PK LOX2 expressing Sf9 cell protein)", "setting": "[2]; printed as 'up to about', EPA 50 μM, 200 mM Tris-HCl pH 7.4, 4 hours at 27° C., FIG. 7", "value": "about 3.2 ng/mg"}]}, {"molecule": "PK LOX1: lipoxygenase isolated from Euphausia pacifica, 691 amino acids, SEQ ID NO: 2, expressed His-tagged in Sf9 insect cells (protein, listed as Euphausia pacifica, His tag) MAPIKEKKSFKLTAATGNQDGAGTDANVYVTFEDEEGRRTKEKKLDKLLYNDLEKGKKDKYDINAPVEFGAVKKLHVHRDSTGLGDSWFCDYFEIKDLRFKGNNNEPSPTKKEYYYFPIHRWISSQHRYEFDEYGTCLPQADPCIGPRKADLEAKKSSYNYVYRIGAMAATDTTDACVGHCAQVETLPADEKFSEDYYWNFATDKLKLLAETKWMEWTNQTKWNSLSDLRSVYKKSLGEPKCLDVWREDWWFGLQRLQGVNPVIIELCTQIPDNLAVTDTTVEGLMDDLTLNEALENKKIFICDLKIMDGLCCKENRELAAPLALFYLNKENKLLPIALQLKQEKGDDNPVFTPKDSKNTWLVAKMFYNNSEAQHHQALTHLGYTHLLMEGVVVCTHRNLSPSHPLFKLMAPHFLFLLAINSRGLEKLVSEGGWVDCCMTQGLCGILDLMKRGFEAWTYTKFGSVSAELEARGVLNKDVLPYYPYRDDALPLFAEIRKYVKTIVEHHYDNEDKMKEDWELKSWREELAKQRSENGVGLADIPGSKEDGFNSVDEVVDVVTMIISTCSLGHAASNFQQYEQYGYVPNYPGILMSTLPKEKKEYTEEEIMQILPDKRMTLDIMVITKLLSTKGTQSLGDFEMQYLYDPVGVQAAKDFRKNLDRLSKKNKLENVDRQWDFDWLDPEFVPNAISV", "values": [{"measurement": "8-HETE content after adding an arachidonic acid, compared to extract of EGFP expressing Sf9 insect cells (control)", "setting": "[3]", "value": "higher"}, {"measurement": "10-HDoHE content after adding a docosahexaenoic acid, compared to extract of EGFP expressing Sf9 insect cells (control)", "setting": "[4]", "value": "higher"}, {"measurement": "8-HEPE content after adding an eicosapentaenoic acid, compared to extract of EGFP expressing Sf9 insect cells (control)", "setting": "[5]; 50 μM, 4 hours, FIG. 6C", "value": "higher"}, {"measurement": "production of 8-HEPE in cell extract", "setting": "[5]; EPA 50 μM added, 4 hours of culture, FIG. 6A", "value": "Production of 8-HEPE was observed"}, {"measurement": "activity compared with specific activity of lipoxygenases known in the art", "setting": "[5]; PK LOX1 expressing Sf9 cells", "value": "markedly stronger than the specific activity of lipoxygenases known in the art"}, {"measurement": "position specificity of oxidation of EPA", "setting": "[5]; only one peak of m/z=317.22, retention time and MS/MS match 8-HEPE standard, FIG. 6A, 6B", "value": "catalyzed position 8 specific oxidation of EPA"}, {"measurement": "specific activity of lipoxygenase (8-HEPE/PK LOX1 expressing Sf9 cell protein)", "setting": "[5]; printed as 'up to about', 50 μM substrate, 4 hours of culture, FIG. 6C", "value": "about 2.5 μg/mg"}]}]}
